For the test, the target named is T1, TNFα (tumor necrosis factor alpha), soluble (UniProt P01375 77-233).
T1 construct: also called TNFa; TNF-alpha
As to the kind of experiment: co-precipitation with protein G-Sepharose, immunoblot with anti-Flag or anti-myc-HRP. From the text:
The respective Fc-fusions were precipitated with protein G-Sepharose and co-precipitated soluble ligands were detected by immunoblotting with anti-Flag (Babco) or anti-myc-HRP (BMB).

From patent US20030118546A1 (Human Genome Sciences, published 2003) come the findings set out here.

T1 sequence (P01375 77-233 limits assumed): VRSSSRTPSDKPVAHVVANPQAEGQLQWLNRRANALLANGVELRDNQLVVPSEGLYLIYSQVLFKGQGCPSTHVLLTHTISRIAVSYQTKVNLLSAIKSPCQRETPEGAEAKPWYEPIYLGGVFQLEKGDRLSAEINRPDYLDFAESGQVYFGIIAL

B1: TRID-Fc (soluble extracellular ligand binding domain of TRID fused to the Fc portion of human immunoglobulin (IgG)) (Fc fusion)
chain: TTARQEEVPQQTVAPQQQRHSFKGEECPAGSHRSEHTGACNPCTEGVDYTNASNNEPSCFPCTVCKSDQKHKSSCTMTRDTVCQCKEGTFRNENSPEMCRKCSRCPSGEVQVSNCTSWDDIQCVEEFGANATVETPAAEETMNTSPGTPAPAAEETMNTSPGTPAPAAEETMTTSPGTPAPAAEETMTTSPGTPAPAAEETMTTSPGTPASSHY
notes: The extracellular domain is only predicted ('about 27 to about 240'); preparation is said to follow Pan et al., Science 276:111 (1997); also called Fc-extracellular domain of TRID; TNFR-5; not shown: Fc portion of human immunoglobulin (IgG)
B1: the binding result was “no binding”.
